Measurements from US12104181B2, “Compositions and methods for treating viral infections targeting TRIM7” (THE BOARD OF REGENTS OF THE UNIVERSITY OF TEXAS SYSTEM, priority 2021, dated 2024).

B1: TRIM32: human RING type E3 ligase expressed from lentiviral vector (protein, UniProt Q13049 2-653, looked up)
E3 ubiquitin-protein ligase …: AAAAASHLNLDALREVLECPICMESFTEEQLRPKLLHCGHTICRQCLEKLLASSINGVRCPFCSKITRITSLTQLTDNLTVLKIIDTAGLSEAVGLLMCRSCGRRLPRQFCRSCGLVLCEPCREADHQPPGHCTLPVKEAAEERRRDFGEKLTRLRELMGELQRRKAALEGVSKDLQARYKAVLQEYGHEERRVQDELARSRKFFTGSLAEVEKSNSQVVEEQSYLLNIAEVQAVSRCDYFLAKIKQADVALLEETADEEEPELTASLPRELTLQDVELLKVGHVGPLQIGQAVKKPRTVNVEDSWAMEATASAASTSVTFREMDMSPEEVVASPRASPAKQRGPEAASNIQQCLFLKKMGAKGSTPGMFNLPVSLYVTSQGEVLVADRGNYRIQVFTRKGFLKEIRRSPSGIDSFVLSFLGADLPNLTPLSVAMNCQGLIGVTDSYDNSLKVYTLDGHCVACHRSQLSKPWGITALPSGQFVVTDVEGGKLWCFTVDRGSGVVKYSCLCSAVRPKFVTCDAEGTVYFTQGLGLNLENRQNEHHLEGGFSIGSVGPDGQLGRQISHFFSENEDFRCIAGMCVDARGDLIVADSSRKEILHFPKGGGYSVLIREGLTCPVGIALTPKGQLLVLDCWDHCIKIYSYHLRRYSTP
B2: RNF41: human RING type E3 ligase expressed from lentiviral vector (protein, UniProt Q9H4P4 1-317, looked up)
E3 ubiquitin-protein ligase …: MGYDVTRFQGDVDEDLICPICSGVLEEPVQAPHCEHAFCNACITQWFSQQQTCPVDRSVVTVAHLRPVPRIMRNMLSKLQIACDNAVFGCSAVVRLDNLMSHLSDCEHNPKRPVTCEQGCGLEMPKDELPNHNCIKHLRSVVQQQQTRIAELEKTSAEHKHQLAEQKRDIQLLKAYMRAIRSVNPNLQNLEETIEYNEILEWVNSLQPARVTRWGGMISTPDAVLQAVIKRSLVESGCPASIVNELIENAHERSWPQGLATLETRQMNRRYYENYVAKRIPGKQAVVVMACENQHMGDDMVQEPGLVMIFAHGVEEI
modifications: lentiviral expression
notes: human RING type E3 ligase expressed from lentiviral vector
B3: TRIM27: human RING type E3 ligase expressed from lentiviral vector (protein, UniProt P14373 1-513, looked up)
Zinc finger protein RFP: MASGSVAECLQQETTCPVCLQYFAEPMMLDCGHNICCACLARCWGTAETNVSCPQCRETFPQRHMRPNRHLANVTQLVKQLRTERPSGPGGEMGVCEKHREPLKLYCEEDQMPICVVCDRSREHRGHSVLPLEEAVEGFKEQIQNQLDHLKRVKDLKKRRRAQGEQARAELLSLTQMEREKIVWEFEQLYHSLKEHEYRLLARLEELDLAIYNSINGAITQFSCNISHLSSLIAQLEEKQQQPTRELLQDIGDTLSRAERIRIPEPWITPPDLQEKIHIFAQKCLFLTESLKQFTEKMQSDMEKIQELREAQLYSVDVTLDPDTAYPSLILSDNLRQVRYSYLQQDLPDNPERFNLFPCVLGSPCFIAGRHYWEVEVGDKAKWTIGVCEDSVCRKGGVTSAPQNGFWAVSLWYGKEYWALTSPMTALPLRTPLQRVGIFLDYDAGEVSFYNVTERCHTFTFSHATFCGPVRPYFSLSYSGGKSAAPLIICPMSGIDGFSGHVGNHGHSMETSP
modifications: lentiviral expression
notes: as for B2
B4: TRIM33: human RING type E3 ligase expressed from lentiviral vector (protein, UniProt Q9UPN9 1-1127, looked up)
E3 ubiquitin-protein ligase …: MAENKGGGEAESGGGGSGSAPVTAGAAGPAAQEAEPPLTAVLVEEEEEEGGRAGAEGGAAGPDDGGVAAASSGSAQAASSPAASVGTGVAGGAVSTPAPAPASAPAPGPSAGPPPGPPASLLDTCAVCQQSLQSRREAEPKLLPCLHSFCLRCLPEPERQLSVPIPGGSNGDIQQVGVIRCPVCRQECRQIDLVDNYFVKDTSEAPSSSDEKSEQVCTSCEDNASAVGFCVECGEWLCKTCIEAHQRVKFTKDHLIRKKEDVSESVGASGQRPVFCPVHKQEQLKLFCETCDRLTCRDCQLLEHKEHRYQFLEEAFQNQKGAIENLLAKLLEKKNYVHFAATQVQNRIKEVNETNKRVEQEIKVAIFTLINEINKKGKSLLQQLENVTKERQMKLLQQQNDITGLSRQVKHVMNFTNWAIASGSSTALLYSKRLITFQLRHILKARCDPVPAANGAIRFHCDPTFWAKNVVNLGNLVIESKPAPGYTPNVVVGQVPPGTNHISKTPGQINLAQLRLQHMQQQVYAQKHQQLQQMRMQQPPAPVPTTTTTTQQHPRQAAPQMLQQQPPRLISVQTMQRGNMNCGAFQAHQMRLAQNAARIPGIPRHSGPQYSMMQPHLQRQHSNPGHAGPFPVVSVHNTTINPTSPTTATMANANRGPTSPSVTAIELIPSVTNPENLPSLPDIPPIQLEDAGSSSLDNLLSRYISGSHLPPQPTSTMNPSPGPSALSPGSSGLSNSHTPVRPPSTSSTGSRGSCGSSGRTAEKTSLSFKSDQVKVKQEPGTEDEICSFSGGVKQEKTEDGRRSACMLSSPESSLTPPLSTNLHLESELDALASLENHVKIEPADMNESCKQSGLSSLVNGKSPIRSLMHRSARIGGDGNNKDDDPNEDWCAVCQNGGDLLCCEKCPKVFHLTCHVPTLLSFPSGDWICTFCRDIGKPEVEYDCDNLQHSKKGKTAQGLSPVDQRKCERLLLYLYCHELSIEFQEPVPASIPNYYKIIKKPMDLSTVKKKLQKKHSQHYQIPDDFVADVRLIFKNCERFNEMMKVVQVYADTQEINLKADSEVAQAGKAVALYFEDKLTEIYSDRTFAPLPEFEQEEDDGEVTEDSDEDFIQPRRKRLKSDERPVHIK
B5: TRIM29: human RING type E3 ligase expressed from lentiviral vector (protein, UniProt Q14134 1-588, looked up)
Tripartite motif-containing …: MEAADASRSNGSSPEARDARSPSGPSGSLENGTKADGKDAKTTNGHGGEAAEGKSLGSALKPGEGRSALFAGNEWRRPIIQFVESGDDKNSNYFSMDSMEGKRSPYAGLQLGAAKKPPVTFAEKGELRKSIFSESRKPTVSIMEPGETRRNSYPRADTGLFSRSKSGSEEVLCDSCIGNKQKAVKSCLVCQASFCELHLKPHLEGAAFRDHQLLEPIRDFEARKCPVHGKTMELFCQTDQTCICYLCMFQEHKNHSTVTVEEAKAEKETELSLQKEQLQLKIIEIEDEAEKWQKEKDRIKSFTTNEKAILEQNFRDLVRDLEKQKEEVRAALEQREQDAVDQVKVIMDALDERAKVLHEDKQTREQLHSISDSVLFLQEFGALMSNYSLPPPLPTYHVLLEGEGLGQSLGNFKDDLLNVCMRHVEKMCKADLSRNFIERNHMENGGDHRYVNNYTNSFGGEWSAPDTMKRYSMYLTPKGGVRTSYQPSSPGRFTKETTQKNFNNLYGTKGNYTSRVWEYSSSIQNSDNDLPVVQGSSSFSLKGYPSLMRSQSPKAQPQTWKSGKQTMLSHYRPFYVNKGNGIGSNEAP
modifications: lentiviral expression
notes: as for B2
B6: TRIM34: human RING type E3 ligase expressed from lentiviral vector (protein, UniProt Q9BYJ4 1-488, looked up)
E3 ubiquitin-protein ligase …: MASKILLNVQEEVTCPICLELLTEPLSLDCGHSLCRACITVSNKEAVTSMGGKSSCPVCGISYSFEHLQANQHLANIVERLKEVKLSPDNGKKRDLCDHHGEKLLLFCKEDRKVICWLCERSQEHRGHHTVLTEEVFKECQEKLQAVLKRLKKEEEEAEKLEADIREEKTSWKYQVQTERQRIQTEFDQLRSILNNEEQRELQRLEEEEKKTLDKFAEAEDELVQQKQLVRELISDVECRSQWSTMELLQDMSGIMKWSEIWRLKKPKMVSKKLKTVFHAPDLSRMLQMFRELTAVRCYWVDVTLNSVNLNLNLVLSEDQRQVISVPIWPFQCYNYGVLGSQYFSSGKHYWEVDVSKKTAWILGVYCRTYSRHMKYVVRRCANRQNLYTKYRPLFGYWVIGLQNKCKYGVFEESLSSDPEVLTLSMAVPPCRVGVFLDYEAGIVSFFNVTSHGSLIYKFSKCCFSQPVYPYFNPWNCPAPMTLCPPSS

System: coxsackievirus B3 (CVB3-GFP)
Type: cell-based
Details: HeLa cells, replicate R1; for Percent Infected R1: GFP-positive cells within RFP-positive gate

Molecule	Percent Infected R1 [%]	Z score R1
B1	58.4	−0.384
B2	93.5	0.06
B3	60.7	−0.355
B4	55.3	−0.424
B5	68	−0.262
B6	62.2	−0.336
